# Molecular target: T1, His6-BldD (Streptomyces venezuelae) (UniProt A0ABZ1NMZ0)
# T1 sequence: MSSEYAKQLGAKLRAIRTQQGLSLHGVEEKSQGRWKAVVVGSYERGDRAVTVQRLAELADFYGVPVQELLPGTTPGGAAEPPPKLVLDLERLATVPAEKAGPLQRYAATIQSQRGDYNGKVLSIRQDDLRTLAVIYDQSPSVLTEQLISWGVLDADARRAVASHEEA
# Test: EMSA
# Conditions: binding buffer and pH not stated
row,Sequence,binding
1,CTCCCAGAGGCAGAGCTTCCATCACGTGCAGTGCGGGACCGTTCACCCGTCGTGGCGACGTGAGGGGTCCTTTGTGCGTCTGAGGAGAATAACGCTTCGTACAGGCAGCGCTACACCCAGTTGCCTAAATCACCGGTTCCG (double strand) [bldN promoter],binds
2,GCCATGACCTGCTGTGACTTGAGTCACAGAGGCGAGTATTTGCTGACCCTGTGTACCGGGTGCGCAGCTCGCTGTGATTCAGTGGCGGTGACAGTGCAACACGAAGCCGATGAGAACCCTGGAGTTGCTGTCGAGGTCTCG (double strand) [cdgB promoter],binds
